Test results published in US9738880B2, “Lysosomal protein targeting sequence and therapeutic applications of same” (Children's Hospital Medical Center, priority 2013, dated 2017).
Changes are numbered by the printed parent chain. Names may count otherwise. “Also recorded” adds a separate entry of the source. Each block holds one molecule with its values, some of them ahead of it.

Columns and labels:
ldLIMP2 = biological target: T1, ldLIMP2 (Homo sapiens, UniProt Q14108); assay: Immunoprecipitation of alanine substituted GCases (TKD sequence) with ldLIMP2; type: binding; conditions: for binding of GCase variant to ldLIMP2, in words: GCase:LIMP2 1:1, immunoblot, FIG. 6
T1 construct: Purified luminal domain LIMP-2 (1d-LIMP2) was custom made (Sino Biological Inc., PRC.); purchased Sino Biological Inc
T1 sequence (Q14108 28-433 limits assumed): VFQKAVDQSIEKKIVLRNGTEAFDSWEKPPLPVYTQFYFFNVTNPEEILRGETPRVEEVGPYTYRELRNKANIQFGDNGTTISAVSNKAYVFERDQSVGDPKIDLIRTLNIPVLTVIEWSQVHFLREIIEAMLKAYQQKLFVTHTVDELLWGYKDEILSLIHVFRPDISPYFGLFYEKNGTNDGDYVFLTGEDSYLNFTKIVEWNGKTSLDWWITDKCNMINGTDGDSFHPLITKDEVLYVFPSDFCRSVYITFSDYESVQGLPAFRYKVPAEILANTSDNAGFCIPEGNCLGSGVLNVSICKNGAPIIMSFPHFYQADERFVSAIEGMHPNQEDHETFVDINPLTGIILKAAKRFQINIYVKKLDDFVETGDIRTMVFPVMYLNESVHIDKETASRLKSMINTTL
Excerpt: FIG. 6A-6E: Immunoprecipitation of the alanine substituted GCases in the TKD sequence with ldLIMP2. In panels shown in FIG. 6A to FIG. 6D, the lanes 1 through 6 correspond to the band densities indicated by the bars in FIG. 6E. […] The quantitative results are shown in (FIG. 6E) in which 1, 2, 3, and 4 correspond to WT, AAA, AKA, and AKD, respectively.
Immunoprecipitation of GCases with mutations in the TKD sequence: For immunoblots, Gba1 knockout mouse fibroblasts (null/null) were transfected with the GBA1 constructs (WT or mutants) and expressed for 5 days. The GCases from harvested cell lysates were purified using a GCase antibody affinity column (Dynabeads protein G crosslinked (BS3) with rabbit anti-human GCase antibody). The purified GCases were then mixed with LIMP2 (1:1), incubated (30 min.), and applied to another affinity column (Dynabeads protein G crosslinked (BS3) with rabbit anti-LIMP2 antibody). Aliquots of each step (loading, wash and eluent) were collected and analyzed on 12.5% SDS gels. Immunoblots were developed using anti-human GCase antibody and AP conjugated color development kits. Mock experiments with either non-LIMP2 proteins added or no GCases added, were used as control. The quantitations of these immunoprecipitation data were obtained from densitometry measurements of the gels. The no-LIMP-2 bars are the controls for comparison, since GCase was processed through all steps without LIMP-2 to account for any losses of GCase; About 50% of the GCase was lost during processing.

[1] = tested on: Gba1 null/null mouse fibroblasts; assay: Immunofluorescence co-localization of expressed GCase constructs (lysosome vs ER/Golgi); type: cell-based; conditions: for localization of GCase DSPIIV variants to the lysosome (Lamp1 / LIMP-2 co-localization), in words: transient transfection, FIG. 10A
Excerpt: Immunofluorescence studies (IF): Mouse Gba1 null/null were used for the host cells for all transfection experiments. pCMV-AC-GFP Mammalian cell expression vector was used for expression of various GCases that included the TKD region (amino acids 407, 408 and 409) or the DSPIIV (SEQ ID NO 15) region (amino acids 399-404). Direct-labeled first antibodies were applied for IF detection; including anti-human GCase, -Calreticulin, -calnexin, -LIMP2, and -Lamp1. Lysotracker and ER tracker (Invitrogen) were also used as indicated. Analyses were done with a Zeiss AxioVert 200M with ApoTome. Co-localization analyses to obtain Pearson Indices were conducted using a module in the Axiovision 4.8 software.
Initial studies to localize the targeting peptide were conducted with GCase-GFP fusion constructs that had COOH-terminal deletions of GCase (FIG. 1). The constructs are designated as GCase-XX or XXX where the Xs represent the number of GCase amino acids deleted from the COOH-terminus. These constructs were transfected into and expressed in Gba1 null/null mouse fibroblasts using the CMV promoter (pCMV-AC-GFP or YFP) Immunofluorescence analyses using anti-human GCase IgG (green) and Lysotracker (Red) were used for colocalization of GCase to the lysosome (Red) or GCase (green) and Calreticulin or Calnexin (Red) for colocalization to the ER or Golgi (FIG. 2). […] Since LIMP-2 is the receptor for targeting of GCase to the lysosome, our working hypothesis was that the peptide sequence for binding of GCase to LIMP-2 was located within amino acids 347-422.

Gba1−/− cells = assay: Proportion of GCase protein in cells and media; type: cell-based, mouse; conditions: for % Secreted: ng GCase in media / (ng in media + ng in lysates) × 100
Excerpt: (§1) FIG. 11A-FIG. 11C: Secretion and retention of GCase with alanine variants in the TDK (FIG. 11A) or DSPIIV (SEQ ID NO 15) (FIG. 11B and FIG. 11C) sequences. FIG. 11A depicts activities in the media of Gba1−/− fibroblasts following transient transfections of each of the specified alanine substituted GCases in the TDK region. […] FIG. 11B depicts in the Left Panel: Activities in the media following transient transfections of various DSPIIV (SEQ ID NO 15) alanine substituted GCases and the % of GCase secreted. The latter was calculated as {ng GCase (in media)/[ng GCase (in media)+ng (GCase in lysates)]}×100 (also see Table 2). […] The transfections alone (Null+lipo) had no effect. […] FIG. 11C deicts in cellular lysate GCase activities from the various alanine substituted GCases in the DSPIIV (SEQ ID NO 15) sequence as indicated. […] The doubly alanine substituted GCase had little intracellular activity, i.e., nearly all the GCase was secreted into the media.

Gba1−/− fibroblasts = assay: GCase activity in media and cell lysates after transient transfection (secretion and retention); type: cell-based, mouse
Excerpt: as §1
(§2) Enzyme Assays: Cell pellets were homogenized in 0.25% Na-taurocholate and 0.25% Triton X-100. GCase activities were determined fluorometrically with 4 mM 4MU-Glc in 0.2M/0.1M citric-phosphate, pH 5.6 (18, 54)

[2] = CRIM specific activity of GCase variants (activity per cross-reacting immunological material); type: biochemical; conditions: for CRIM specific activity relative to WT (assigned 100%): FIG. 11A, 11B right panels
Experimental: as §2
Corresponding effects on the secretion of GCases from the cells containing various mutations in DSPIIVDITDK were found by assessing the activity of GCases in the media and cell lysate (FIG. 11 A-C). […] Using this assessment, the ratio of CRIM specific activities relative to WT (assigned 100%) for AAA, TAD, and AKA were 20%, 32%, and 49%, respectively (FIG. 11A, right panel), or that more GCase protein was required from the respective mutants to achieve the same enzyme activity as the WT. […] For the other mutants this ranged from 22-36%. This compares to ˜0% for the WT or D399E GCases Immunoaffinity anti-GCase column purification of the various GCases from media confirmed the excesses of these mutant GCases and the inability to detect WT or D399E GCases in media (data not shown).

binding of GCase variant to ldLIMP2, in words (ldLIMP2): somewhat less binding
enzyme localized to the lysosome ([1]; TKD sequence variants, FIG. 5): about 50%
B2: AKD: human GCase with TKD (407-409) replaced by AKD, as named in figure legends (protein, UniProt P04062 40-536, looked up, variant T407A)
Lysosomal acid …: ARPCIPKSFGYSSVVCVCNATYCDSFDPPTFPALGTFSRYESTRSGRRMELSMGPIQANHTGTGLLLTLQPEQKFQKVKGFGGAMTDAAALNILALSPPAQNLLLKSYFSEEGIGYNIIRVPMASCDFSIRTYTYADTPDDFQLHNFSLPEEDTKLKIPLIHRALQLAQRPVSLLASPWTSPTWLKTNGAVNGKGSLKGQPGDIYHQTWARYFVKFLDAYAEHKLQFWAVTAENEPSAGLLSGYPFQCLGFTPEHQRDFIARDLGPTLANSTHHNVRLLMLDDQRLLLPHWAKVVLTDPEAAKYVHGIAVHWYLDFLAPAKATLGETHRLFPNTMLFASEACVGSKFWEQSVRLGSWDRGMQYSHSIITNLLYHVVGWTDWNLALNPEGGPNWVRNFVDSPIIVDIAKDTFYKQPMFYHLGHFSKFIPEGSQRVGLVASQKNDLDAVALMHPDGSAVVVVLNRSSKDVPLTIKDPAVGFLETISPGYSIHTYLWRRQ
GCase activity in the media / secretion, in words (Gba1−/− fibroblasts; media, FIG. 11A, 11B): greatest increases

binding of GCase variant to ldLIMP2, in words (ldLIMP2): bound similarly
B3: TAD: human GCase with TKD (407-409) replaced by TAD (protein)
chain: B2 Lysosomal acid … with A407T, K408A
increase of GCase activity in the media compared to WT (Gba1−/− fibroblasts; media, transient transfection, FIG. 11A, 11B): ~8 fold
CRIM specific activity relative to WT (assigned 100%) [2]: 32%

The remaining lines, values behind:

B1: Human WT: wild type human GCase (acid β-glucosidase, SEQ ID NO 2) expressed in Gba1−/− cells (protein, listed as Homo sapiens)
chain: B2 Lysosomal acid … with A407T
binding of GCase variant to ldLIMP2, in words (ldLIMP2; listed as WT): nearly complete binding; also recorded: bound similarly
localization of GCase DSPIIV variants to the lysosome (Lamp1 / LIMP-2 co-localization), in words ([1]; listed as WT): targeted to the lysosomes; also recorded: co-localization of GCase (FITC) with either Lamp 1 (Red) or LIMP-2
Total GCase (Gba1−/− cells; cellular + media, mean ± SD, n = 3): 23 ± 4 ng
% Secreted (Gba1−/− cells): ~0%
Cellular GCase (Gba1−/− cells; total ng, mean ± SD, n = 3): 23 ± 4 ng
Media GCase (Gba1−/− cells; total ng, mean ± SD, n = 3): 0 ng

B4: D399E: human GCase variant with charge conserved D399E (ESPIIV, SEQ ID NO 20) (protein)
chain: B2 Lysosomal acid … with D399E, A407T
Pearson Indices for co-localization to the lysosome, in words ([1]; DSPIIV variants, FIG. 10B): did not alter the co-localization compared to WT
localization of GCase DSPIIV variants to the lysosome (Lamp1 / LIMP-2 co-localization), in words [1]: targeted to the lysosomes
localization of GCase DSPIIV variants to the lysosome (Lamp1 / LIMP-2 co-localization), in words ([1]; listed as E399): did not alter the cellular localization or secretion of GCase
localization of GCase DSPIIV variants to the lysosome (Lamp1 / LIMP-2 co-localization), in words ([1]; listed as ESPIIV): co-localization of GCase (FITC) with either Lamp 1 (Red) or LIMP-2
GCase activity in cell lysates, in words (Gba1−/− fibroblasts; cell lysates, FIG. 11C): equal intracellular activities
GCase activity in the media / secretion, in words (Gba1−/− fibroblasts; media, FIG. 11A, 11B): no media activity above background
GCase activity in the media / secretion, in words (Gba1−/− fibroblasts; media, FIG. 11A, 11B, listed as E399): did not alter the cellular localization or secretion of GCase
GCase activity in the media / secretion, in words (Gba1−/− fibroblasts; media, FIG. 11A, 11B, listed as ESPIIV): did not alter secretion
CRIM specific activity, in words ([2]; FIG. 11B right panel): minor change in CRIM specific activity
% Secreted (Gba1−/− cells): ~0%

B5: AKA: human GCase with TKD (407-409) replaced by AKA (protein, listed as Homo sapiens)
chain: B2 Lysosomal acid … with D409A
binding of GCase variant to ldLIMP2 (ldLIMP2; GCase on beads vs wash, FIG. 6C): about 50%
binding of GCase variant to ldLIMP2, in words (ldLIMP2): much less bound
lysosomal localization of GCases with alanine substitutions in the TKD sequence, in words ([1]; FIG. 5): less lysosomal localization
co-localization to / retention in the ER/Golgi, in words ([1]; calnexin or calreticulin): majority of the enzymes co-localized to the ER/Golgi
CRIM specific activity relative to WT (assigned 100%) [2]: 49%
